This assay has as its target Mouse myosin 5a HMM (m5-HMM), heavy chain (mouse) (UniProt Q99104). Kind of assay: photo-bleaching step counting by TIRF microscopy; single molecules bound on a cover glass surface after exchange with Alexa488-CaM at 5:1 (Alexa488-CaM: myosin); step-wise photo-bleaching counted.
Chain of UniProt Q99104 (Q99104 whole entry): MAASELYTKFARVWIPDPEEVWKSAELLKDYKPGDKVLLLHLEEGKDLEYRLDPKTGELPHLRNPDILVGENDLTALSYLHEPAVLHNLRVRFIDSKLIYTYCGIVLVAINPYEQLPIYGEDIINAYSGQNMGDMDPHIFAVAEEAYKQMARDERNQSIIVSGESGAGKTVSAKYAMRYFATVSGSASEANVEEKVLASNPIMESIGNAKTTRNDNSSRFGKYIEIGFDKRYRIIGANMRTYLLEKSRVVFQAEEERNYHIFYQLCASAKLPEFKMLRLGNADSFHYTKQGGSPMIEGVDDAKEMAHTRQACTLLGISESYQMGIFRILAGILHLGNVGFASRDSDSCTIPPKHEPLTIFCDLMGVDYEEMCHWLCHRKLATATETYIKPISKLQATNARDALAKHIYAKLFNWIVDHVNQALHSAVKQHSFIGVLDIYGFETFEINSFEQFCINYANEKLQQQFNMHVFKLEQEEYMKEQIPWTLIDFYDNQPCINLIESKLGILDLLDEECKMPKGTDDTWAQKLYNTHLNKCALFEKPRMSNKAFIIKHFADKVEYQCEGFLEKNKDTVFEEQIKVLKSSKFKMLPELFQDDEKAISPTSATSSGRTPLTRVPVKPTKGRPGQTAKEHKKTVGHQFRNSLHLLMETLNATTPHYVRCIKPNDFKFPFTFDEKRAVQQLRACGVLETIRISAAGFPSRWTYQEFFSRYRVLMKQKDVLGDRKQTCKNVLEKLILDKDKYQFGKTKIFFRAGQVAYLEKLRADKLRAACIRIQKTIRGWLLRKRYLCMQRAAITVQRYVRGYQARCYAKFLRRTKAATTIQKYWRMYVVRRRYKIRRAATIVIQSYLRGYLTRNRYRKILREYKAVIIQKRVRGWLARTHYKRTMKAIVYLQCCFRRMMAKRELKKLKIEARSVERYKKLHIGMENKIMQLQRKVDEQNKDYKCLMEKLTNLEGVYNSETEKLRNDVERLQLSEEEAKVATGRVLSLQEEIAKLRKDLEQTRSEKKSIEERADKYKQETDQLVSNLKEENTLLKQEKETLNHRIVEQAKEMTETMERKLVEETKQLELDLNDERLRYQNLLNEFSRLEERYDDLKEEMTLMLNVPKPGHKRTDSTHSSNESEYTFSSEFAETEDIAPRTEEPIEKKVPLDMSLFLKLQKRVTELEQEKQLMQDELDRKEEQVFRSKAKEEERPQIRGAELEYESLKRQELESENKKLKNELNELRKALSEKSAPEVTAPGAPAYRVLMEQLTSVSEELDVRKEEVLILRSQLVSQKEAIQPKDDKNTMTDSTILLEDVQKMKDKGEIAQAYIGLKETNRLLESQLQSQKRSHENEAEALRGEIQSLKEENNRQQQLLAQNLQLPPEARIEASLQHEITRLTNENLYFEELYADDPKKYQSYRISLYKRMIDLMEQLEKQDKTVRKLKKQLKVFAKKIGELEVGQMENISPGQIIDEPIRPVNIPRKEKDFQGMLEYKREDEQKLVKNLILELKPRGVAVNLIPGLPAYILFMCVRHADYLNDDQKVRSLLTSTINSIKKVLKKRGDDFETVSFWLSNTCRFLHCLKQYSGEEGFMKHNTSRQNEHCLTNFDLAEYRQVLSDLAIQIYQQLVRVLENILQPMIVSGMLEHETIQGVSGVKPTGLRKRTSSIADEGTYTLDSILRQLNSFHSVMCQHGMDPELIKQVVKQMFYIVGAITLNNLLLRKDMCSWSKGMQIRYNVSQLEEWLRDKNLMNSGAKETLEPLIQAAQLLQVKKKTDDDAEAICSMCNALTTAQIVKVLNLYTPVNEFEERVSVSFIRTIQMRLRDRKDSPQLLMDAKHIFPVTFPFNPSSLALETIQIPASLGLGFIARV

In the case of “Alexa Fluor 488-labeled bovine calmodulin (from UniProt P62157 1-149) (natural protein)”, the Alexa488-CaM molecules exchanged into one myosin molecule is 2.

“Mouse myosin 5a HMM (m5-HMM), heavy chain (from UniProt Q99104 1-1853) (domain or fragment)” came in with a stoichiometry N of 2.
